This is an account of results in article doi:10.1101/2025.08.21.671625, “α-catenin phosphorylation is actomyosin-sensitive and required for epithelial barrier functions through Afadin” (bioRxiv, 2025).

The target in the assay is T1, full length αE-cat R551A (human, UniProt P35221 1-906, R551A).
T1 construct: αE-catenin (CTNNA1), human, full length, M3-domain salt-bridge mutant R551A; also called GST-αE-catenin (human) R551A
T1 sequence (looked up): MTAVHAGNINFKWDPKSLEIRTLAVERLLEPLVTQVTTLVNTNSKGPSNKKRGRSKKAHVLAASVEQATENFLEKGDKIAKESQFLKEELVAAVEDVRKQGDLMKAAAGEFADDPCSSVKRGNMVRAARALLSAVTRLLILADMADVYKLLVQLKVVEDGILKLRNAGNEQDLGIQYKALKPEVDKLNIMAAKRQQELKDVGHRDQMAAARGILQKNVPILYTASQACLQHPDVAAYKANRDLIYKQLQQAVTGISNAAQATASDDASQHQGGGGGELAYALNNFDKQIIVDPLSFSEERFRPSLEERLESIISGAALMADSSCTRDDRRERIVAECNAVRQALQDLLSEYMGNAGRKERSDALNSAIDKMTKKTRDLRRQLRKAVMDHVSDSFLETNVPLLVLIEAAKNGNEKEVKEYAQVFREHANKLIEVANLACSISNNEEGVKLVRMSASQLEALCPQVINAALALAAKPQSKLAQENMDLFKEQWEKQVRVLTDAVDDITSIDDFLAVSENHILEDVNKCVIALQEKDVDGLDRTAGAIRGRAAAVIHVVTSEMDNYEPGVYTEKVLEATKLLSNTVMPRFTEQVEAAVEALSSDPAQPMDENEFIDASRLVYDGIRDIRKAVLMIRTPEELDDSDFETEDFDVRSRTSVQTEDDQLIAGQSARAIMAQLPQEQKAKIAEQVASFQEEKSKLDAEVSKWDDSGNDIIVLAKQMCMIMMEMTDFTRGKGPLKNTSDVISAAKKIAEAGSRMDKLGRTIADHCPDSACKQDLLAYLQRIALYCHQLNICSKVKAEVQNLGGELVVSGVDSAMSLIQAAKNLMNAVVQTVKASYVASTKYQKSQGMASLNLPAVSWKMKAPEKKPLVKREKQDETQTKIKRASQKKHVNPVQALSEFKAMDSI
The assay is described as follows: pull-down; GST-Afdn-CC-ABR (or GST control) pre-bound to glutathione resin, mixed with α-cat prey proteins, washed, eluted with free glutathione; interaction strength assessed by Coomassie staining. As to conditions: both partners purified.

B1: GST-Afadin-Coiled-coil α-cat binding region (Afadin-CC-ABR; amino acids 1391–1449) (domain or fragment, rat)
chain: MDLPLPPPPANQAAPQSAQVAAAERKKREEHQRWYEKEKARLEEERERKRREQERKLGQ
notes: cDNA from the Takai lab; also called GST-Afadin-CC-ABR; GST-Afdn-CC-ABR; not shown: GST, N-terminal, kept
In the case of B1, the binding result is listed as “binds”.
